In patent US7501273B2, “Peptidylarginine deiminase 6” (N.V. Organon, priority 2001, dated 2009):

Tested on: Soybean Trypsin Inhibitor (STI)
Assay: Determination of PAD6 enzyme activity: citrullination of STI, read out as trypsin activity on a fluorescent substrate
Format: biochemical
Settings: 0.5 or 1.0 μg GST-PAD6, 0.17 μg STI, 30 minutes at 37° C., 5 mM CaCl2; FIG. 5
Text: Another example of determining the enzymatic activity of PAD6 makes use of the inactivation of a protein e.g. Soybean Trypsin Inhibitor (STI) (Talcahara, H. et al. 1985, J. Biol. Chem. 260, 8378–8383. When an essential arginine in STI is converted into citrulline it is no longer able to inhibit the proteolytic activity of trypsin. This can be used as the basis for a two-step assay for the determination of PAD activity. The assay consists of two steps. In the first reaction PAD converts the arginine (position 63) in STI into a citrulline inactivating the STI. In the second reaction trypsin and a fluorescent substrate are added and trypsin activity is measured.
FIG. 5 Fluorescence measurement to determine PAD activity. STI (0.17 μg) was pre-incubated in the absence (filled square) or presence of 0.5 μg GST-PAD6 (filled triangle), 1.0 μg GST-PAD6 (open triangle), or 0.1 μg rabbit muscle PAD (open square; Sigma cat. No P1584) respectively. Subsequently, Nα-benzoyl-L-Arginine-7-amido-4-methylcoumarin (100 μM; Sigma cat. No. B7260) and trypsin (0.25 μg) were added, and fluorescence determined.
The activity of the PAD was determined by the formation of citrulline in Soybean Trypsin Inhibitor (STI) as a substrate. […] Therefore, an increased activity of trypsin, as detected with a fluorescent trypsin substrate, indicates PAD activity. […]

B1: PAD6: Recombinant full-length human peptidylarginine deiminase 6 (SEQ ID NO:3) expressed in E. coli as GST fusion protein (protein)
chain: MSFQSIIHLSLDSPVHAVCVLGTEICLDLSGCAPQKCQCFTIHGSGRVLIDVANTVISEKEDATIWWPLSDPTYATVKMTSPSPSVDADKVSVTYYGPNEDAPVGTAVLYLTGIEVSLEVDIYRNGQVEMSSDKQAKKKWIWGPSGWGAILLVNCNPADVGQQLEDKKTKKVIFSEEITNLSQMTLNVQGPSCILKKYRLVLHTSKEESKKARVYWPQKDNSSTFELVLGPDQHAYTLALLGNHLKETFYVEAIAFPSAEFSGLISYSVSLVEESQDPSIPETVLYKDTVVFRVAPCVFIPCTQVPLEVYLCRELQLQGFVDTVTKLSEKSNSQVASVYEDPNRLGRWLQDEMAFCYTQAPHKTTSLILDTPQAADLDEFPMKYSLSPGIGYMIQDTEDHKVASMDSIGNLMVSPPVKVQGKEYPLGRVLIGSSFYPSAEGRAMSKTLRDFLYAQQVQAPVELYSDWLMTGHVDEFMCFIPTDDKNEGKKGFLLLLASPSACYKLFREKQKEGYGDALLFDELRADQLLSNGREAKTIDQLLADESLKKQNEYVEKCIHLNRDILKTELGLVEQDIIEIPQLFCLEKLTNIPSDQQPKRSFARPYFPDLLRMIVMGKNLGIPKPFGPQIKGTCCLEEKICCLLEPLGFKCTFINDFDCYLTEVGDICACANIRRVPFAFKWWKMVP
modifications: left off: a dimerising Fc or GST
PAD activity (increased trypsin activity, fluorescence): could be detected
